The test concerns C57/BL/6 mice. Description: Glucose tolerance test with normal mice, PALP and CCcompound1 combined. It counts as in vivo. To be noted: PALP 0.4 mg/mouse i.p. −24 h. How it is done:
Female C57/BL/6 mice weighing 24-26-g and fasted for 12 hours before i.p. glucose administration (3 g/kg) were used. None of the animals received any food during the experiment other than glucose. One group of animals was untreated while animals in other groups received subcutaneous (s.c.) injections of 2.0 or 4.5-mg/kg of CCcompound1 either 30 min or 60 min prior to glucose administration as indicated in TABLE 5. Two groups of animals received i.p. injections of 0.4-mg per mouse (˜16-mg per kg) of highly purified PALP 24 hours prior to glucose administration. Purification of PALP was described in detail earlier [Z. Kiss, U.S. Pat. No. 7,048,914, “Placental Alkaline Phosphatase to Control Diabetes]. Animals in one of the PALP treated group also received s.c. injections of 4.5-mg/kg of CCcompound1 30 min prior to glucose administration as indicated in TABLE 5. Blood samples were taken and glucose concentrations were immediately measured as described earlier. Each group included five animals. The data are the mean±std. dev. of 5 determinations, i.e. one determination with each of the five animals. “-min” and “-h” indicates the length of period in minutes and hours, respectively, elapsed between the administration of test agents (first) and glucose (second).

Here are results for one molecule from patent US20090317372A1, “SMALL MOLECULES FOR THE REDUCTION OF HIGH BLOOD GLUCOSE LEVEL” (priority 2008, published 2009).

B1: PALP: highly purified placental alkaline phosphatase (protein, UniProt P05187 23-506, looked up)
Alkaline phosphatase, …: IIPVEEENPDFWNREAAEALGAAKKLQPAQTAAKNLIIFLGDGMGVSTVTAARILKGQKKDKLGPEIPLAMDRFPYVALSKTYNVDKHVPDSGATATAYLCGVKGNFQTIGLSAAARFNQCNTTRGNEVISVMNRAKKAGKSVGVVTTTRVQHASPAGTYAHTVNRNWYSDADVPASARQEGCQDIATQLISNMDIDVILGGGRKYMFRMGTPDPEYPDDYSQGGTRLDGKNLVQEWLAKRQGARYVWNRTELMQASLDPSVTHLMGLFEPGDMKYEIHRDSTLDPSLMEMTEAALRLLSRNPRGFFLFVEGGRIDHGHHESRAYRALTETIMFDDAIERAGQLTSEEDTLSLVTADHSHVFSFGGYPLRGSSIFGLAPGKARDRKAYTVLLYGNGPGYVLKDGARPDVTESESGSPEYRQQSAVPLDEETHAGEDVAVFARGPQAHLVHGVQEQTFIAHVMAFAACLEPYTACDLAPPAGTTD
Take B1: the Blood glucose (0 min) is 3.7 ± 0.5 mM, the Blood glucose (30 min) turned out to be 6.8 ± 0.3 mM, the Blood glucose (60 min) amounted to 5.3 ± 0.4 mM and the Blood glucose (120 min) amounted to 4.3 ± 0.5 mM.
